Patent US20140105902A1 (SAMSUNG ELECTRONICS, published 2014)

Target: c-Met, endogenous in human cell lines (NCI-H441, EBC-1, MKN45, HCC827 ER15, HEK293) (human, UniProt P08581 25-1390)
Assay: cell-based or functional assay

c-Met, endogenous in human cell lines (NCI-H441, EBC-1, MKN45, HCC827 ER15, HEK293), sequence (P08581 25-1390): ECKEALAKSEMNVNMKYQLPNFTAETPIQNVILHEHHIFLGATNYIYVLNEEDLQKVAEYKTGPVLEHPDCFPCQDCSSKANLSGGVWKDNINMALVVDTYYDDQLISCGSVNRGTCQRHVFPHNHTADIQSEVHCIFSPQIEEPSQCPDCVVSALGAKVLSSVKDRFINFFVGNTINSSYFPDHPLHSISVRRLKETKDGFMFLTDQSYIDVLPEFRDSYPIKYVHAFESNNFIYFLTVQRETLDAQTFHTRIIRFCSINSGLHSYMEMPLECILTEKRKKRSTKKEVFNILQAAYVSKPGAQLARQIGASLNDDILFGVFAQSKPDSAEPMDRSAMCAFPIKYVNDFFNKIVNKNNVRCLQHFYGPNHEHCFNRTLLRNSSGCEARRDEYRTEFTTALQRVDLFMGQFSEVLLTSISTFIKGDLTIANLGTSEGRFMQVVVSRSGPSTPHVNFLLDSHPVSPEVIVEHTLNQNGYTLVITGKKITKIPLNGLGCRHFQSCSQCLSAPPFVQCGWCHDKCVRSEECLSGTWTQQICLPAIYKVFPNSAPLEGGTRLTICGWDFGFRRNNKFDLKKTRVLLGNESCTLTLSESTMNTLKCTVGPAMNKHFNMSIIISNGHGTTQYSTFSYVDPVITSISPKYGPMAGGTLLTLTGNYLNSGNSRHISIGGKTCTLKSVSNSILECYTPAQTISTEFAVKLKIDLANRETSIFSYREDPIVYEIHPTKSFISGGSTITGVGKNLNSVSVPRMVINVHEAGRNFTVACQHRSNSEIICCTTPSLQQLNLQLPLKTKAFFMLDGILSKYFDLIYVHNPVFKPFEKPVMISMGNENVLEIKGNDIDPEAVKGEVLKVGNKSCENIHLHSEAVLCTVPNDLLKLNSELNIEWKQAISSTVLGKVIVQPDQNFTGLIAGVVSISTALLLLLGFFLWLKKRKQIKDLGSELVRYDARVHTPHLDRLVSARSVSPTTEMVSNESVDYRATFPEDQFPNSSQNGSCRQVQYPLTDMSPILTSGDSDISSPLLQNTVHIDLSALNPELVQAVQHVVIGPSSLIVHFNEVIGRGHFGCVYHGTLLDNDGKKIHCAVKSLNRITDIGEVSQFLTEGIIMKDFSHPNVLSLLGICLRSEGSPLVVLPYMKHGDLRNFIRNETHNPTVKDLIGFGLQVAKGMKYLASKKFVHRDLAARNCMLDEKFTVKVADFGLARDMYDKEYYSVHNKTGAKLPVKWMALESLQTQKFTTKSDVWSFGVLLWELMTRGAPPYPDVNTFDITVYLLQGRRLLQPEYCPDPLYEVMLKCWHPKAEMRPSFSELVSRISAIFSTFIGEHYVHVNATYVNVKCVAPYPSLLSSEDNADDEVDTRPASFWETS

B1: anti-c-Met antibody L3-1Y (huAbF46-H4-A1 (U6-HC7)) (antibody, V domains shown)
VH: EVQLVESGGGLVQPGGSLRLSCAASGFTFTDYYMSWVRQAPGKGLEWLGFIRNKANGYTTEYSASVKGRFTISRDNSKNTLYLQMNSLRAEDTAVYYCARDNWFAYWGQGTLVTVSS
VL: DIQMTQSPSSLSASVGDRVTITCKSSQSLLASGNQNNYLAWYQQKPGKAPKMLIIWASTRVSGVPSRFSGSGSGTDFTLTISSLQPEDFATYYCQQSYSRPYTFGQGTKVEIKR
Q: For B1, which “total c-Met level by ELISA, Cbl siRNA-transformed EBC-1 cells, 5 ug/ml, 24 h, relative to control IgG” value is on record?
A: ~30%
